Laboratory results as given in the nanobody polyreactivity screen of Harvey et al. (2022).

test: yeast display, Sf9 membrane polyspecificity reagent, FACS + sequencing; frameworks hold sequencing errors
Outline: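 Galactose induction of a Saccharomyces cerevisiae BJ5465 synthetic nanobody display library ran 36–48 hours. The cells were then stained for 1 hour at 4 °C with 10% biotinylated, detergent-solubilized Sf9 membrane reagent, pulled down on streptavidin microbeads and FACS-sorted into low and high (top ~1%) gates on expression and reagent-binding fluorescence. Labels for polyreactivity follow the gate of origin.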

Question: Which “polyreactivity (PSR sort gate)” value does the source give for “QVQLVESGGGLVQAGGSLRLSCAASGITFGWNVAMGWYRQAPGKERELVATITNGGSTKYADSVKGRFTISRDNAKNTVYLQMNSLKPEDTAVYYCAARVYHRFEWFHQYDYWGQGTQVTVSS” here?
Answer: high polyreactivity

Question: For “QVQLVESGGGLVQAGGSLRLSCAASARIFRYYAMGWYRQAPGKERELVAGISWRGSSTYYADSVKGRFTISRDNAKNTVYLQMNSLKPEDTAVYYCNRDQSNIPVTGGRFYYWRQGTQVTVSS”, which “polyreactivity (PSR sort gate)” value is on record?
Answer: high polyreactivity

Question: Which “polyreactivity (PSR sort gate)” value does the source give for “QVQLVESGGGLVQAGGSLRLSCAASGRSFCTYAMGSYRQAPGKERELVAAITSGGSTNYADSVKGRFTISRDNAKNTVYLQMNSLKPEDTAVYYCAAVEYLRESDYWGQCTQVTVSS” here?
Answer: low polyreactivity

Question: Which “polyreactivity (PSR sort gate)” value does the source give for “QVQLVESGGGLVQAGGSLRLSCAASGLIFKYYAMGWYRHAPGKERELVAAITWRGGDRTYYADSVKGRFTISRDNAKNTVYLQMNSLKPEDTAVYYCAAVISSPWRFDYWGQGTQVTVSS” here?
Answer: high polyreactivity

Question: Which “polyreactivity (PSR sort gate)” value does the source give for “QVQLVESGGGLVQAGGSLRLSCAASGFILGVYAMGWYRQAPGKERELVAAISKSGDSTYYADSVKGRFTISRDNAKNTVYLLMNSLKPEDTAVYYCNADWSWYNYYDFDYWGQGTQVTVSS” here?
Answer: low polyreactivity

Question: Which “polyreactivity (PSR sort gate)” value does the source give for “QVQLVESGGGLVQAGGSLRLSCAASGSIFGSYTMGWYRQAPGKERELVAAITTSGSSTYYADSVKGRFTISRDNAKNTVYLQMNSLKPEDTAVYYCSAEYYVTYPPYGWYDYWGHGTQVTVSS” here?
Answer: high polyreactivity

Question: Which “polyreactivity (PSR sort gate)” value does the source give for “QVQLVDSGGGLVQAGGSLRLSCAASGYTFRYYAMGWYRQEPGKERELVAAITRSGTTYYADSVKGRFTISRDNAKNTVYIQMNSLKTDDTAVYYCNTRVTGNRLGYYYWGQGTQVTVSS” here?
Answer: high polyreactivity

Question: For “QVQLVESGGGLVQAVGRLRLSCAASGSNFQYYAMGWYRQAPGKERELVAAISSSGTGTSYADSVKGRFTISRDNAKNTVYLQMNSLKPEDTGVYYCAADYRDYPDSAYYYWGQGTQVTVSS”, which “polyreactivity (PSR sort gate)” value is on record?
Answer: low polyreactivity

Question: With “QVQLVVSGGGLVQAGGSLRLSCAASGSIFYRNAMGWYRQAPGKDRELVAAISFSGGSTYYADSVKARFSISRDNAKNTVYLQMNSLKPEDTAVYYCAAEAYPSWFYVITGFGIYDYWGQGTQGTVSS” as the sequence, how does the “polyreactivity (PSR sort gate)” value read?
Answer: high polyreactivity

Question: Which “polyreactivity (PSR sort gate)” value does the source give for “QVQLVESGGGLVQAGGSLRLSCAASGRIFHIYAMGWYRQAPGKERELVAAISSDGSTYYADSVKGRFTISRDNAKNTVYLQMNSLKPEDTAVYYCAVESPQGRQCYEYWGQGTQVTVSS” here?
Answer: low polyreactivity

Question: For “QVQLVESGGGLVQAGGSLRLSCADSGSILGNAMVWYRQAPGKERELVAAITRGVSTYYADSVKGRFTISRDNAKNTVYLQMNSLKPEDTAVYYCYKTYVRGVHGVYLPITSYDYWGQGTQVTVSS”, which “polyreactivity (PSR sort gate)” value is on record?
Answer: low polyreactivity

Question: For “QVQLVESGGGLVQAGGSLRLSCAASGFIFRRNAMGWYRQAPGKERELVAVISSRGGTYYADSVKGRFTISRDNAKNTVYLQMNSLKPEDTAVYYCAVDRGKYFPYRYDYWGQGTQVTVSS”, which “polyreactivity (PSR sort gate)” value is on record?
Answer: high polyreactivity

Question: For “QVQLVESGGGLVQAGGSLRLSCAASGGTFTVNAMGLYRQAPGKERELVAAITWDGGTTYYADSVKGRFTISRDNAKNTVYLQMNSLKPEDSAVYYCAAEVDYSAFDYWGQGTQVTVSS”, which “polyreactivity (PSR sort gate)” value is on record?
Answer: low polyreactivity

Question: With “QVQLVESGGGLVQAGGSLRLSCAASGSTFVNNAMGWYRQAPGKERELVAAISKTGGRTRYADSVKGRFTISRDNAKNTVYLQMNSLKPEDTAVYYCAARYYGGGYNYWGQGTQVTVSS” as the sequence, how does the “polyreactivity (PSR sort gate)” value read?
Answer: high polyreactivity

Question: For “QVQLVESGGGLVQAGGSLRLICAASGSIFDYNAMGWYRQAPGKERELVAAITSTDSTYADSVKGRFTISRDNAKNTVYLQMNSLKPEDTAVYYCNARYLAWTYYYPYDYWGQGTQVTVSS”, which “polyreactivity (PSR sort gate)” value is on record?
Answer: low polyreactivity

Question: For “QVQLVESGGGLVQAGGSLRLTCAASGSIFEYNGMGWYRQAPGKERELVAAITTTGTTDYADSVKGRFTISRDNAKNTVYLQMNSLKPEDTAVDYCAAEYTYYYTGEYDYWGQGTQVTVSS”, which “polyreactivity (PSR sort gate)” value is on record?
Answer: low polyreactivity

Question: Which “polyreactivity (PSR sort gate)” value does the source give for “QVQLVESGGGLVQAGGSLRLSCAASGSTYYFYPMGSYRQAPGKERELVAAISFTDTSTYYADSVQGRFTISRDNAKNTVYLQMNSLKPEDTAVYYCAARYAGGYYYWGQGTQVTVSS” here?
Answer: high polyreactivity

Question: For “QVQLVESGGGLVQAGGSLRLSCAASGYTFRPYAMGSYIQAPGKERELVAAISSTGGRTYYADSVKGRFTISRDIAKNTVYVQMNSLKPEYTAVYYCAVLKVYRSSFDYCGQGTQVTVSS”, which “polyreactivity (PSR sort gate)” value is on record?
Answer: high polyreactivity

Question: For “QVQLQESGGGLVQAGGSLRLSCAASGTIFRISDMGSYRQAPGKELEFVAAITYGANTYYADSGKGRFTISRDNAKNTVYLQMNSLKPEDTAVYYCAVPPVKETILDYWGQGTQVTVSS”, which “polyreactivity (PSR sort gate)” value is on record?
Answer: low polyreactivity

Question: For “QVQLVESGGGLVQAGGSLRLSCAASGFISPPYAMGWYRQAPGKVMELVAAISSNGGRTSYADSVKGRFTISRDNAKNTVYLQMNSLKPEDTAVYYCNAVYSLYYTRYNYWGQGTQETVSS”, which “polyreactivity (PSR sort gate)” value is on record?
Answer: high polyreactivity

Question: With “QVQLVESGGGLVQAGGSLRLSCAASGSSVSYYAMGWYRQAPGKERELVAAISDNGDSTYYADSVKGRFTISRDNAKNTVYLQMNSLKPEDTAVYYCDKRYRSYGKSSKRRYYYWGQGTQVTVSS” as the sequence, how does the “polyreactivity (PSR sort gate)” value read?
Answer: low polyreactivity

Question: With “QVQLVESGGGLVQAGGSLRLSSAASGSTIVLYTMGWYRQAPGKEWELVAAITNGTRTYYADSVKGRFTISRDNAKNTVYLQMNSLKPQDTAVYYCAVDGVKRGADLFYYWGHGTQVTVSS” as the sequence, how does the “polyreactivity (PSR sort gate)” value read?
Answer: high polyreactivity

Question: Which “polyreactivity (PSR sort gate)” value does the source give for “QVQLVESGGGLVQAGGSLRLSSAASGSTFGIYAMGWYRQAPGKERELVAAISSGGSTNYADSVKGRFTISRDNAKNTVYLQMNSLKPEDTAVYYCAVESVYEYGGYVDSAFDYWGQGTQVTVSS” here?
Answer: low polyreactivity

Question: For “QVQLEESGGGLVQAGGSLRLSCAASGSIFSYYVMGWYRQAPGKERELVARNSKRGVTTYYADSVKGRFTISRDNAKNTVYLQMNSLKPEDTAVYFCAASVWRDRIYRYEYWGQGTQVTVSS”, which “polyreactivity (PSR sort gate)” value is on record?
Answer: high polyreactivity

Question: With “QVQLVESGGGLVQAGGSLRLSCAASGITFYGYAMGWYRQAPGKERELVARISSGGTTKYADSVKGRFTISRDNAKNTVYLQMNSLKPEDTAGYYCAVGGSWWYYGFYYWGQGTQVSVSS” as the sequence, how does the “polyreactivity (PSR sort gate)” value read?
Answer: high polyreactivity

Question: For “QVQLVESGGALVQAGGSLRLSCAPSGFTFMRYAMGWYRQAPGKERELDAAIRGTGTSTYYADSVKVRFTISRDNAKNTVYLQMNSLNPEDTAVYYCNKVAGRSPYTRYDYWAQGTQVTVSS”, which “polyreactivity (PSR sort gate)” value is on record?
Answer: low polyreactivity

Question: For “QVQLVESVGCLVQAGGSLRLSCAASGFIFDYYAMGRYRHGPGKERELVAGISWSGGSTYYADSVKGRFTISSDNSKNTVYLQMNSLIPEDTAVYYCNAEDSVPFYLYYYWGQGSQVTVSS”, which “polyreactivity (PSR sort gate)” value is on record?
Answer: low polyreactivity

Question: For “QVQLVESGGGLVQEGGSLRLSCADSGRIFSTNAMGWSRQAPGKERELVAAISWSTGSTYYADSVKGRFTISRDNAKNTVYLQMNSLKPEDTAVYYCAASYTRTYWAYSYGYWGQGTQVTVSS”, which “polyreactivity (PSR sort gate)” value is on record?
Answer: high polyreactivity

Question: Which “polyreactivity (PSR sort gate)” value does the source give for “QVQLVESGGGLLKAGGSLRLSCAASGRIFDIYNMGWYRPAPGKERELVAAISSSGGRTYYADSVKGRFTISRDNAKTTVYLQMKSVKPEDTAVYYGAARPSKYVGSRGYDYWGQGTQVTVSS” here?
Answer: high polyreactivity

Question: With “QVQLVESGGGLVQAGGSLRLSSAASGSTSCPYAMGWYRQAPGKERELVATISWIGDRTYYADSVKGRFTISRDNAKNTFYLQMNSLKPEDTAVYYCNADYRGYANLEGDYWGQGTQVTVSS” as the sequence, how does the “polyreactivity (PSR sort gate)” value read?
Answer: low polyreactivity

Question: With “QVQLVESGGGLVQAGGSLRLSCASSGFTSWDNDMGWYRQAPGKERELVAAISRGGSTNYADSVKGRFTISRDNAKDTVYLQMNSLKPVDTAVYYCNADFAPWDKQDYPYDYDYWGQGTQVTVSS” as the sequence, how does the “polyreactivity (PSR sort gate)” value read?
Answer: low polyreactivity

Question: For “QVQLVESGGGLVQAGGSLRLSCAASGSILGGNTMGGYRQAPGKERELVAAISRSGGSTYYADSVKGRLTISRDNAKNTVYLQMNSLKPEDTAVYYCNRKQAGHAQGYDYWGQGTQVTVSS”, which “polyreactivity (PSR sort gate)” value is on record?
Answer: high polyreactivity

Question: For “QVQLVESGGGLVQAGGSLRLSCAASGRIFYAYTIGWYRQAPGKERELVAAISGSGSTYYADSVKGRFTISRDNAKNTVYLQMNSLKPVDTAVYYCAADVTGGRKYDYWGQGTQVSVSS”, which “polyreactivity (PSR sort gate)” value is on record?
Answer: low polyreactivity

Question: With “QVQLEESGGGLVQAGGSLRLRCAASGRTFGYYAMGWYRQAPGKERQLVASITSGGRTYYADSVKGRFTISRDNSKNTVYLQMNSLKPEDTAVFYCAADRFGIGGKSGNDYWGQGTQVTVSS” as the sequence, how does the “polyreactivity (PSR sort gate)” value read?
Answer: high polyreactivity

Question: Which “polyreactivity (PSR sort gate)” value does the source give for “QVQLVESGGGLVQAGGSLRLSCAASGSTFPYYAMGWYRQAPGKERELVARISSGSSTNYADSVKGRFTISRDNAKNTVYLQMNSLKPEDTAVYYCAARYTARRQSYGYWGQGTQVTVSS” here?
Answer: high polyreactivity

Question: With “QVQLVESGGGLVQAGGSLRLSCAASGFTFNRYAMGWYRQAPGKERELVARITRGGSTKYADSVKGRFTISRDNAKNTVYLEMNSLKPEDTAVYYCAADYGGFLVYDYWGQGTQVTVSS” as the sequence, how does the “polyreactivity (PSR sort gate)” value read?
Answer: high polyreactivity

Question: Which “polyreactivity (PSR sort gate)” value does the source give for “QVQLVESGGGLVQAGGSLRLSCAASGRIFSGYAMGWYRQAPGKERELVAAITSGGSTNYADSVKGRFTISRDNAKNTVYLQMNSLKPEDTAVYYCAADSREVSTTAYYYWGQRTQVTVSS” here?
Answer: low polyreactivity

Question: Which “polyreactivity (PSR sort gate)” value does the source give for “QVQLVESGGGLVQAGGSLRLSCAASGRIFRYYVMGWYRHAPGKEREFVASISGRGASTYYADSVKGRFTISRDNAKNTVYLLMNSLKPEDTAVYYCNADVWLLSYFPEYDYWGQGTQVTVSS” here?
Answer: low polyreactivity

Question: For “QVQLVESGGGLVQAGGSLRLSCAASGFTFPWNVMGGYRQAPGKERELVAAITYDGGGTYADSVKGRFTISRDNAKNTVYLQMNSLKPEDTAVYYCNADLIYGEEYDYWGQGTQVTVSS”, which “polyreactivity (PSR sort gate)” value is on record?
Answer: low polyreactivity

Question: With “QDQLVESGGGLVQAGGSLRLSCAASGRTFWVYAMGWYRQAPGKERELVAAIRRGGITNYADSVKGRFTISRDNAKNTVYLQMNSLKPEDTAVYYCATDNYGYLTRYYYWGQGTQVTVSS” as the sequence, how does the “polyreactivity (PSR sort gate)” value read?
Answer: low polyreactivity

Question: With “QVQHVESGGGLLQAGGSLRLSCAASVSTLSKNAMGWYRQAPGKERELVAAITRRGGSTSYADSVKGRFTISRDNAKNTVYFQMNSLKPEDTAVYYCNAVSKYDYGYWGQGTQVTVSS” as the sequence, how does the “polyreactivity (PSR sort gate)” value read?
Answer: high polyreactivity
